Reference: publication PMC9482650, “Quantitative fragmentomics allow affinity mapping of interactomes” (Nature Communications, 2022)

Key:
Assay in all cases: holdup assay
Set-up in all cases: key: below the threshold = too weak to quantify, mostly under pKd 3.1 to 4
[1] = target: T1, APBA2_1, Q99767
T1 sequence (Q99767 563-664, limits assumed, looked up): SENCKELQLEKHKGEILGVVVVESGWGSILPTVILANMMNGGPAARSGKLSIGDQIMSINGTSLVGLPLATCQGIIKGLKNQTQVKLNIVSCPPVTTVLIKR

[2] = target: T2, ARHGAP21, Q5T5U3
T2 sequence (Q5T5U3 45-169, limits assumed, looked up): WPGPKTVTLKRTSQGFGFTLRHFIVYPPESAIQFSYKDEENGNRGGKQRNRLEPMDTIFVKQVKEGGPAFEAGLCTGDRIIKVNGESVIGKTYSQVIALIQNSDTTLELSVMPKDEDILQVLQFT

[3] = target: T3, DFNB31_1, Q9P202
T3 sequence (Q9P202 135-233, limits assumed, looked up): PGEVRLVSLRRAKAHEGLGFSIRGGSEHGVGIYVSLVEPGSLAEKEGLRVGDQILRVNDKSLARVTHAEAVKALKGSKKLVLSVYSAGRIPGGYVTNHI

[4] = target: T4, DFNB31_2, Q9P202
T4 sequence (Q9P202 274-371, limits assumed, looked up): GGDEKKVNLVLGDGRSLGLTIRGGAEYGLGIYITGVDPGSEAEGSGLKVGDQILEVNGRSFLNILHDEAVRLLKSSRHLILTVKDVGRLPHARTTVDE

[5] = target: DLG1_2, Q12959
Chain of DLG1_2, Q12959 (Q12959 314-412): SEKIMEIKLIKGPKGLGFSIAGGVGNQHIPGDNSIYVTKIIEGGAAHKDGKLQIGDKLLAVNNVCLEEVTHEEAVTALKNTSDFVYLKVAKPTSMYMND

[6] = target: GIPC2, Q8TF65
Chain of GIPC2, Q8TF65 (Q8TF65 112-203): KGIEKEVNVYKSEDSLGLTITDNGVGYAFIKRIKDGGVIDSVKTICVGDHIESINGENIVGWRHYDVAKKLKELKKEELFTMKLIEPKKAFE

[7] = target: GRID2IP_1, A4D2P6
Chain of GRID2IP_1, A4D2P6 (A4D2P6 1-87): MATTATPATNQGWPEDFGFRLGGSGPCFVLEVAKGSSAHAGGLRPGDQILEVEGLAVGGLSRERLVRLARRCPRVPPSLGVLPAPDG

[8] = target: GRIP2_3, Q9C0E4
Chain of GRIP2_3, Q9C0E4 (Q9C0E4 238-339): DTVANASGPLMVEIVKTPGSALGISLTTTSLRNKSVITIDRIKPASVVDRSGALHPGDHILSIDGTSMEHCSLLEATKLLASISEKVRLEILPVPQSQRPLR

[9] = target: GRIP2_4, Q9C0E4
Chain of GRIP2_4, Q9C0E4 (Q9C0E4 446-548): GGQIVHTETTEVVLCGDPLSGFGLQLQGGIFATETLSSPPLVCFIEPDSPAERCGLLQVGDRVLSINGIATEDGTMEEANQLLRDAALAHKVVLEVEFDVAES

[10] = target: GRIP2_7, Q9C0E4
Chain of GRIP2_7, Q9C0E4 (Q9C0E4 934-1023): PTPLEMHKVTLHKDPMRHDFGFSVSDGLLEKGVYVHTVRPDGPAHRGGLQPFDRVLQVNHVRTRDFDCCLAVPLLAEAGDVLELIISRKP

[11] = target: HTRA1, Q92743
Chain of HTRA1, Q92743 (Q92743 360-477): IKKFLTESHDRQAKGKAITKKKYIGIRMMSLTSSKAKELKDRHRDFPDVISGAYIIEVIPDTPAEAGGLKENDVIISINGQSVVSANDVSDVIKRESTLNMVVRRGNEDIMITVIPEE

[12] = target: HTRA2, O43464
Chain of HTRA2, O43464 (O43464 355-458): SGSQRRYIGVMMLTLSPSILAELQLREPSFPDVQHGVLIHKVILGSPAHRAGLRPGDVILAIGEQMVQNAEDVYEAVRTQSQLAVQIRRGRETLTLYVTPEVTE

[13] = target: IL16_1, Q14005
Chain of IL16_1, Q14005 (Q14005 210-306): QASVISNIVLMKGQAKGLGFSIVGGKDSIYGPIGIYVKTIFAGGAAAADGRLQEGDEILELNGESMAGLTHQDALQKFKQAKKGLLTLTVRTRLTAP

[14] = target: IL16_4, Q14005
Chain of IL16_4, Q14005 (Q14005 1229-1329): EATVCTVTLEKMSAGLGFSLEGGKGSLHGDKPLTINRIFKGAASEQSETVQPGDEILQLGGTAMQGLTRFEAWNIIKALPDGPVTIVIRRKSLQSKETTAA

[15] = target: Inadl_3, Q8NI35
Chain of Inadl_3, Q8NI35 (Q8NI35 359-469): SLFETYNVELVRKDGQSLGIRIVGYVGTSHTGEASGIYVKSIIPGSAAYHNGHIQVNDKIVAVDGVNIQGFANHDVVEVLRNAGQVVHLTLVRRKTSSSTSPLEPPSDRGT

[16] = target: Inadl_4, Q8NI35
Chain of Inadl_4, Q8NI35 (Q8NI35 547-651): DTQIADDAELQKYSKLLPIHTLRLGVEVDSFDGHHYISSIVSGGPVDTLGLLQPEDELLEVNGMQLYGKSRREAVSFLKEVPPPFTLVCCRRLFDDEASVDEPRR

[17] = target: Inadl_8, Q8NI35
Chain of Inadl_8, Q8NI35 (Q8NI35 1425-1530): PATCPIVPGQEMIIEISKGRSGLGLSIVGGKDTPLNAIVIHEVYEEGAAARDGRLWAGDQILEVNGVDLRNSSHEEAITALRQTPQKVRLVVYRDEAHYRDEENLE

[18] = target: LNX1_3, Q8TBB1
Chain of LNX1_3, Q8TBB1 (Q8TBB1 500-596): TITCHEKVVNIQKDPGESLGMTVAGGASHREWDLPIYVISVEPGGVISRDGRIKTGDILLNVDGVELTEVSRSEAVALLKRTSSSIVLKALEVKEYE

[19] = target: T5, LNX2_2, Q8N448
T5 sequence (Q8N448 334-432, limits assumed, looked up): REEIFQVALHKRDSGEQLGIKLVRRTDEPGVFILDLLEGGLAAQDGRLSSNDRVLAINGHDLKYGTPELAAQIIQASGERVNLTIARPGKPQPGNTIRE

[20] = target: T6, LRRC7, Q96NW7
T6 sequence (Q96NW7 1440-1537, limits assumed, looked up): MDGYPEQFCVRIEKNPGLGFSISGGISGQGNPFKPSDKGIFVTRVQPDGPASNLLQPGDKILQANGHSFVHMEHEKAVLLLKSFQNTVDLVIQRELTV

[21] = target: MAGI2_6, Q86UL8
Chain of MAGI2_6, Q86UL8 (Q86UL8 1141-1229): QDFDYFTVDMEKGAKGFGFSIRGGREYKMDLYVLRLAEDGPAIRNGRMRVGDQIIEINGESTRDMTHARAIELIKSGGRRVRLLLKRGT

[22] = target: MAGI3_2, Q5TCQ9
Chain of MAGI3_2, Q5TCQ9 (Q5TCQ9 398-503): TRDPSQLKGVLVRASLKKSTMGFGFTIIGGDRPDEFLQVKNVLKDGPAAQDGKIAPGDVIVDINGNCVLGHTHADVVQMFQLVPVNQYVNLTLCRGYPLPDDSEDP

[23] = target: MAST2, Q6P0Q8
Chain of MAST2, Q6P0Q8 (Q6P0Q8 1099-1202): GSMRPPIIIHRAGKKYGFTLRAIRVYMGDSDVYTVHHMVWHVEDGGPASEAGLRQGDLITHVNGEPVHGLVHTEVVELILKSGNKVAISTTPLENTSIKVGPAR

[24] = target: T7, NHERF3_1, Q5T2W1
T7 sequence (Q5T2W1 4-100, limits assumed, looked up): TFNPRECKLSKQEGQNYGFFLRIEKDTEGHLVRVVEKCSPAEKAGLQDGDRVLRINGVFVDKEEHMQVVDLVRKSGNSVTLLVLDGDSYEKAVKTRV

[25] = target: PDZRN4_1, Q6ZMN7
Chain of PDZRN4_1, Q6ZMN7 (Q6ZMN7 213-318): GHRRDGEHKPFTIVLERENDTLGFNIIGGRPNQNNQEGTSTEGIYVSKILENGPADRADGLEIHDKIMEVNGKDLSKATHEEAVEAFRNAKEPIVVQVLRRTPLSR

[26] = target: PTPN3, P26045
Chain of PTPN3, P26045 (P26045 505-587): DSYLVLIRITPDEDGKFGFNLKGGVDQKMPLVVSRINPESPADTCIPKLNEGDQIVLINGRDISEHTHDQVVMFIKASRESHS

[27] = target: T8, SNTG2, Q9NY99
T8 sequence (Q9NY99 68-166, limits assumed, looked up): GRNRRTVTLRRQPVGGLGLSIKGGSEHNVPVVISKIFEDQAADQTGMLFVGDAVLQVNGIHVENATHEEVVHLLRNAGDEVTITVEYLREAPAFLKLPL

[28] = target: T9, TIAM2, Q8IVF5
T9 sequence (Q8IVF5 885-986, limits assumed, looked up): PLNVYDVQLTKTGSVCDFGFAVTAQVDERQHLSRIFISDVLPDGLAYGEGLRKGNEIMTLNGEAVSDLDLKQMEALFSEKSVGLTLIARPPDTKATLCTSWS

[29] = target: TJP1_2, Q07157
Chain of TJP1_2, Q07157 (Q07157 181-274): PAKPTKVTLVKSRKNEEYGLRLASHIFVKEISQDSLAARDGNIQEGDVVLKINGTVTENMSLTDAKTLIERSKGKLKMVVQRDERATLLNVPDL

[30] = plain residues with an end cap or a label only (N-terminal biotin on a linker: ahx)
[31] = plain residues with an end cap or a label only (N-terminal biotin on a linker: ttds)

TEAKLTETNA [MYO18A, Q92614]
pKd [1, 30]: below the threshold
pKd [2, 30]: below the threshold
pKd [3, 30]: below the threshold
pKd [4, 30]: below the threshold
pKd [5, 30]: below the threshold
pKd [6, 30]: below the threshold
pKd [7, 30]: below the threshold
pKd [8, 30]: below the threshold
pKd [9, 30]: below the threshold
pKd [10, 30]: below the threshold
pKd [11, 30]: below the threshold
pKd [12, 30]: below the threshold
pKd [13, 30]: below the threshold
pKd [14, 30]: below the threshold
pKd [15, 30]: below the threshold
pKd [16, 30]: below the threshold
pKd [17, 30]: below the threshold
pKd [18, 30]: below the threshold
pKd [19, 30]: below the threshold
pKd [20, 30]: below the threshold
pKd [21, 30]: below the threshold
pKd [22, 30]: below the threshold
pKd [23, 30]: below the threshold
pKd [24, 30]: below the threshold
pKd [25, 30]: below the threshold
pKd [26, 30]: below the threshold
pKd [27, 30]: below the threshold
pKd [28, 30]: below the threshold
pKd [29, 30]: below the threshold

IDNDTESTAL [ARHGAP17, Q68EM7]
pKd [1, 31]: below the threshold
pKd [2, 31]: below the threshold
pKd [3, 31]: 3.84
pKd [4, 31]: below the threshold
pKd [5, 31]: below the threshold
pKd [6, 31]: below the threshold
pKd [7, 31]: below the threshold
pKd [8, 31]: below the threshold
pKd [9, 31]: below the threshold
pKd [10, 31]: below the threshold
pKd [11, 31]: 3.65
pKd [12, 31]: below the threshold
pKd [13, 31]: below the threshold
pKd [14, 31]: below the threshold
pKd [15, 31]: below the threshold
pKd [16, 31]: below the threshold
pKd [17, 31]: below the threshold
pKd [18, 31]: below the threshold
pKd [19, 31]: below the threshold
pKd [20, 31]: below the threshold
pKd [21, 31]: 3.79
pKd [22, 31]: below the threshold
pKd [23, 31]: below the threshold
pKd [24, 31]: 5.25
pKd [25, 31]: 4.26
pKd [26, 31]: 4.76
pKd [27, 31]: 3.8
pKd [28, 31]: below the threshold
pKd [29, 31]: below the threshold

STLTIFETAL [ABCC4, O15439]
pKd [1, 31]: below the threshold
pKd [2, 31]: 4.53
pKd [3, 31]: 4.63
pKd [4, 31]: below the threshold
pKd [5, 31]: 4.57
pKd [6, 31]: below the threshold
pKd [7, 31]: 3.48
pKd [8, 31]: below the threshold
pKd [9, 31]: below the threshold
pKd [10, 31]: below the threshold
pKd [11, 31]: below the threshold
pKd [12, 31]: 3.68
pKd [13, 31]: 3.5
pKd [14, 31]: below the threshold
pKd [15, 31]: 4
pKd [16, 31]: below the threshold
pKd [17, 31]: below the threshold
pKd [18, 31]: below the threshold
pKd [19, 31]: below the threshold
pKd [20, 31]: 4.39
pKd [21, 31]: 4.53
pKd [22, 31]: 4
pKd [23, 31]: 5.92
pKd [24, 31]: 6.21
pKd [25, 31]: 5.42
pKd [26, 31]: 5.11
pKd [27, 31]: 4.97
pKd [28, 31]: below the threshold
pKd [29, 31]: below the threshold
